Test results reported in US20260183437A1 (ABDERA THERAPEUTICS, published 2026).

Columns and labels:
[1] = molecular target: T1, DLL3 on cells (UniProt Q9NYJ7 27-618, limits assumed); experiment: flow cytometry on HEK-DLL3 cells
T1 construct: whole, on cells; also called DLL3 on SHP-77, NCI-H82 (H82), NCI-H69 and HEK-DLL3 cells
T1 sequence (looked up): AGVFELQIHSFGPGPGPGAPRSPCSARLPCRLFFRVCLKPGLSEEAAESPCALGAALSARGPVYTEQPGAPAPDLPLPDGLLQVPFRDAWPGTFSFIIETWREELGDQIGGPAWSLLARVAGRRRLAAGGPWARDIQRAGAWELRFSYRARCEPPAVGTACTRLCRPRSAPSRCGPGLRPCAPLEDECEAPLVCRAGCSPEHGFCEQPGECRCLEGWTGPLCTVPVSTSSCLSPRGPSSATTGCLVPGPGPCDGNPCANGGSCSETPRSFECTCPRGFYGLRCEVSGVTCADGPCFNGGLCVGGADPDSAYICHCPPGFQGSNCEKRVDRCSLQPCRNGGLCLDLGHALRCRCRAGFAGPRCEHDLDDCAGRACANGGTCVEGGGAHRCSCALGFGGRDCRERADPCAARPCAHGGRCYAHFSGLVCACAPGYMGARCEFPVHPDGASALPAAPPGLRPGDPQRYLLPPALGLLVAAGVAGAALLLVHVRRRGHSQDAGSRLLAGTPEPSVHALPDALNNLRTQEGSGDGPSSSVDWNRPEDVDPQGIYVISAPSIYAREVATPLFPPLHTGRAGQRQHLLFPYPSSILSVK

[2] = molecular target: T1, DLL3 on cells; experiment: flow cytometry on SHP-77 cells

EC50 [1]: 0.06 nM
EC50 [2]: 0.11 nM
B1: Rovalpituzumab (antibody, V domains shown)
VH: QVQLVQSGAEVKKPGASVKVSCKASGYTFTNYGMNWVRQAPGQGLEWMGWINTYTGEPTYADDFKGRVTMTTDTSTSTAYMELRSLRSDDTAVYYCARIGDSSPSDYWGQGTLVTVSS
VL: EIVMTQSPATLSVSPGERATLSCKASQSVSNDVVWYQQKPGQAPRLLIYYASNRYTGIPARFSGSGSGTEFTLTISSLQSEDFAVYYCQQDYTSPWTFGQGTKLEIK
